Results published in patent US20180346588A1.

How the values were obtained:
[1] = molecular target: human mesothelin (MSLN) on the cell surface (human) (UniProt Q13421); test: FACS on MSLN stable cell line (#2), right panels; negative control; sheet note: 1st Ab 0.36 µg (2nd assay), 2nd Ab anti-human Fc antibody FITC
[2] = molecular target: human mesothelin (MSLN) on the cell surface (human) (UniProt Q13421); test: FACS on MSLN stable cell line (#2), left panels; negative control; sheet note: 1st Ab 1 µg (1st assay), 2nd Ab anti-human Fc antibody FITC
[3] = molecular target: human mesothelin (MSLN) on the cell surface (human) (UniProt Q13421); test: FACS on MiaPaCa-MSLN #2 cells, upper histogram and table; negative control
[4] = molecular target: human mesothelin (MSLN) on the cell surface (human) (UniProt Q13421); test: FACS on MSLN stable cell line (#2), left panels; sheet note: 1st Ab 1 µg (1st assay), 2nd Ab anti-human Fc antibody FITC
[5] = molecular target: human mesothelin (MSLN) on the cell surface (human) (UniProt Q13421); test: FACS on MiaPaCa-MSLN #2 cells, upper histogram and table
[6] = molecular target: human mesothelin (MSLN) on the cell surface (human) (UniProt Q13421); test: FACS on MSLN stable cell line (#2), right panels; sheet note: 1st Ab 0.36 µg (2nd assay), 2nd Ab anti-human Fc antibody FITC

human mesothelin (MSLN) on the cell surface (human), sequence (Q13421 other isoform, or with tags, fused parts or gaps limits assumed): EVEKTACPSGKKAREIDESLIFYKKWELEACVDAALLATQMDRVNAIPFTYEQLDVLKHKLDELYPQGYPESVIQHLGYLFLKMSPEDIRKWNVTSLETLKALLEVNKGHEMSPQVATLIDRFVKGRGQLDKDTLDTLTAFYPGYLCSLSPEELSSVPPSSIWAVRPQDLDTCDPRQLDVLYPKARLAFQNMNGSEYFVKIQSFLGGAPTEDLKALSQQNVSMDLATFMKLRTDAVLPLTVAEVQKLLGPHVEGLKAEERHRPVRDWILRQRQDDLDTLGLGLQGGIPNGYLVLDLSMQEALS

Substance | Mean, FL1-H [1] | Mean, FL1-H [2] | Mean, FL2-H [3] | Mean, FL1-H [4] | Mean, FL2-H [5] | Mean, FL1-H [6]
hIgG (antibody) | 4.81 | 3.36 | 8.6 |  |  | 
Morab (antibody) |  |  |  | 515 | 3190 | 263
